This note sets out measurements from patent US20190367619A1 (ARGENX, published 2019).

B1: 4E08 Fab (Fab, V domains shown)
VH: QVQRQESGPGLVKPSQTLSLTCTVSGGSITTSYYAWSWIRQPPGKGLEWMGVIASDGSTYYSPSLKSRTSISRDTSKNQFSLQLSSVTPEDTAVYYCALYIRGSSWSGWSAYDYWGQGTQVTVSS
VL: QPVLNQPSAVSVSLGQTARITCQGGNFGYYYGSWYQQKPGQAPVLVIYKDSERPSGIPERFSGSSSGGTATLTISRAQAEDEADYYCQSADSSDNPVFGGGTHLTVL
notes: VH on human CH1 constant domain (with part of the hinge region), VL on human lambda constant domain; also called 4E8; Fab 4E8
B2: 1D11 Fab (Fab, V domains shown)
VH: QVQLVESGGGLVQPGGSLRLSCAASGFTFDDYAMSWVRQAPGKGLEWVSGISWNGGSTYYAESMKGRFTISRDNAKNTLYLQMNSLKSEDTAVYYCAKDRNLGYRLGYPYDYWGQGTQVTVSS
VL: QSVLTQPPSVSGSPGETVTISCAGTSSDVGYGNYVSWYQQLPGMAPRLLIYEVNKRASGITDRFSGSKSGNTASLTISGLQSEDEGDYYCASYRSSNNAVFGGGTHLTVL
notes: VH on human CH1 constant domain (with part of the hinge region), VL on human lambda constant domain; also called Fab 1D11; Fab-1D11
B3: 6F05 Fab (Fab, V domains shown)
VH: QLQLVESGGGLVQPGGSLRLSCAASGFTFSSYAMSWVRQAPGKGLEWVSAINSGGGSTSYADSVKGRFTISRDNAKNTLYLQMNSLKPEDTAVYYCATPGDRLWYYRYDYWGQGTQVTVSS
VL: QAGLTQPPSVSGTLGKAVTISCAGTSSDIGYGNYVSWYQQLPGTAPKLLIYKVSRRASGVPDRFSGSKSGNTASLSISGLQSEDEADYYCASYRYRNNVVFGGGTHLTVL
notes: VH on human CH1 constant domain (with part of the hinge region), VL on human lambda constant domain; also called 6F5; Fab 6F5
B4: 1C09 Fab (Fab, V domains shown)
VH: QVQLVESGPGLVKPSQTLSLTCTVSGGSITTNSYYWSWIRQPPGKGLEWMGAIAYSGSTYYSPSLKSRTSISRDTSKNQFTLHLSSVTPEDTAVYYCARRPNWYRALDAWGQGTLVTVSS
VL: NFMLTQPSAVSVSLGQTARITCQGANLGRYYGIWYQQKPGQAPVQVIYGDSNRPSGIPERFSGSSSGGTATLTISGAQAEDEADYYCQSYESSTSPVFGGGTHLTVL
notes: VH on human CH1 constant domain (with part of the hinge region), VL on human lambda constant domain; also called 1C9; Fab 1C09
B5: scFv 6A08 (periplasmic extract, Myc-tagged) (scFv, not shown: small tags and cut ends)
scFv: QVQLVESGGGLVQPGGSLRLSCAASGFTFSSYAMSWVRQAPGKGPEWVSAINRGGGSTYYADSVKGRFTISRDNAKNTLYLQMNSLKPEDAAVYYCATPGDRLWYYRYDYWGQGAQVTVSSGGGGSGGGGSGGGGSQTVVTQEPSLSVSPGGTVTLTCGLSSGSVTSSNYPGWYQQTPGQAPRLLIYNTNSRYSGVPNRFSGSISGNKAALIISGAQPEDEADYHCALNRVRGTYRVFGGGTHLTVL
B6: scFv 6E10 (periplasmic extract, Myc-tagged) (scFv, not shown: small tags and cut ends)
scFv: QLQLVESGGGLVQPGGSLRLSCAASGFTFSSYWMYWVRQAPGKGLEWVSAINTGGGSTYYADSVKGRFTISRDNAKNTLYLQMNSLKPEDTALYYCARAGSGVAGTGYDYWGQGTQVTVSSGGGGSGGGGSGGGGSQPVLNQPSAVSVSLGQTARITCQGGNFGYYYVSWYQQKPGQAPVLVIYRDSGRPSGIPERFSGSSSGDTATLTISGAQAEDEADYYCQSGSSSDNAVFGGGTHLTVL
notes: also called 6E010
B7: scFv 1C09 (periplasmic extract, Myc-tagged) (scFv, not shown: small tags and cut ends)
scFv: QVQLVESGPGLVKPSQTLSLTCTVSGGSITTNSYYWSWIRQPPGKGLEWMGAIAYSGSTYYSPSLKSRTSISRDTSKNQFTLHLSSVTPEDTAVYYCARRPNWYRALDAWGQGTLVTVSSGGGGSGGGGSGGGGSNFMLTQPSAVSVSLGQTARITCQGANLGRYYGIWYQQKPGQAPVQVIYGDSNRPSGIPERFSGSSSGGTATLTISGAQAEDEADYYCQSYESSTSPVFGGGTHLTVL
notes: also called 1C9
B8: scFv 2F09 (periplasmic extract, Myc-tagged) (scFv, not shown: small tags and cut ends)
scFv: QVQVQESGPGLVKPSQTLSLTCTVSGGSITTNYFYWSWIRQSPGKGLEWIGAIAYSGRTYYSPSLKSRTSISRDTSNNQFTLQLSSVTPEDTAVYYCARGPKGLASYYDYWGQGTQVTVSSGGGGSGGGGSGGGGSSSALTQPSAVSVSLGQTARITCQGGNFGYYYVSWYQQKPGQAPVLVIYRDSGRPSGIPERFSGSSSGDTATLTISGAQAEDEADYYCQSGSSSDNTVFGGGTHLTVL
B9: scFv 4E08 (periplasmic extract, Myc-tagged) (scFv, not shown: small tags and cut ends)
scFv: QVQRQESGPGLVKPSQTLSLTCTVSGGSITTSYYAWSWIRQPPGKGLEWMGVIASDGSTYYSPSLKSRTSISRDTSKNQFSLQLSSVTPEDTAVYYCALYIRGSSWSGWSAYDYWGQGTQVTVSSGGGGSGGGGSGGGGSQPVLNQPSAVSVSLGQTARITCQGGNFGYYYGSWYQQKPGQAPVLVIYKDSERPSGIPERFSGSSSGGTATLTISRAQAEDEADYYCQSADSSDNPVFGGGTHLTVL
notes: also called 4E8
B10: scFv 2C07 (periplasmic extract, Myc-tagged) (scFv, not shown: small tags and cut ends)
scFv: ELQLVESGGGLVQPGGSLRLSCAASGFTFSSYAMSWVRQAPGKGLEWVSNINSGGGSTGYADSVKGRFTISRDNAKNTLYLQMNSLKPEDMAVYYCAKYLRTYYPNAAFGMDYWGKGTLVTVSSGGGGSGGGGSGGGGSQAVLTQPSAVSVSLGQTARITCQGGNFGRYYASWYQQKPGQAPVLVIYRDSERPSGIPERFSGSSSGDTATLTISGAQAEDEADYYCQSGRSSDNAVFGGGTHLTGL
B11: scFv 1D11 (periplasmic extract, Myc-tagged) (scFv, not shown: small tags and cut ends)
scFv: QVQLVESGGGLVQPGGSLRLSCAASGFTFDDYAMSWVRQAPGKGLEWVSGISWNGGSTYYAESMKGRFTISRDNAKNTLYLQMNSLKSEDTAVYYCAKDRNLGYRLGYPYDYWGQGTQVTVSSGGGGSGGGGSGGGGSQSVLTQPPSVSGSPGETVTISCAGTSSDVGYGNYVSWYQQLPGMAPRLLIYEVNKRASGITDRFSGSKSGNTASLTISGLQSEDEGDYYCASYRSSNNAVFGGGTHLTVL
notes: also called 1D011
B12: scFv 6B06 (periplasmic extract, Myc-tagged) (scFv, not shown: small tags and cut ends)
scFv: QVQRQESGPGLVKPSQTLSLTCTVSGGSITTNYYSWSWIRQPPGKGLEWIGYIAYSGSTSYSPSLKSRTSISRDTSNNQFSLQLSSVTPEDTAVYYCARSRSSPTTFGMDYWGKGTLVTVSSGGGGSGGGGSGGGGSSSALTQPSAVSVSLGQTARITCQGGNFGRYYVSWYTQKPGQAPVLVIYQDSERPTGIPERFSGSSSGDTATLTISGAQAEDEADYYCQSGTSSDNIVFGGGTHLTVL
B13: scFv 6F06 (periplasmic extract, Myc-tagged) (scFv, not shown: small tags and cut ends)
scFv: QVQLVESGGGLVQPGGSLRLSCAASEFTFSRYSMSWVRQAPGKGLEWVSTINSGGGSTSYVDSVKGRFTISRDNAKNTLYLQMNSLKPEDTAVYYCTKSQGGISFSTQYGMDYWGKGTLVTVSSGGGGSGGGGSGGGGSNFMLTQPSAVSVSLGQTARITCQGGNFGRYYANWYQQKPGQAPVLVIYKDSERPSGIPERFSGSSSGDTATLTISGAQAEDESDYYCQSGSVSDNAVFGGGTHLAVL

The first assay has as its target T1, human galectin-10-His (recombinant human galectin-10 with TEV-cleavable N-terminal His-tag) (human).
T1 construct: SEC-MALLS: dimer in solution; also called Gal10-His; humanGal10-His
T1 chain: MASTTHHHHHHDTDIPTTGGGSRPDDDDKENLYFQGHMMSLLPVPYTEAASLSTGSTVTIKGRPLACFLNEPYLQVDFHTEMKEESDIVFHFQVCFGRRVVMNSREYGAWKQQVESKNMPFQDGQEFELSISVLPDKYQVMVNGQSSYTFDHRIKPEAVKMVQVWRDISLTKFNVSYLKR
Kind of assay: ELISA, Fab on coated galectin-10-His. In general terms: ELISA stands for enzyme-linked immunosorbent assay.
With B1, the Bmax worked out at 0.7 OD and the EC50 was 25.6 nM.
The like results for B2 were, in that order, 0.9 OD and 1.6 nM.
As for B3, the Bmax amounted to 0.8 OD and the EC50 is 26.7 nM.
With B4, the Bmax was determined as 1 OD and the EC50 worked out at 1.9 nM.

The target in a further assay is T1, human galectin-10-His (recombinant …). Kind of assay: BLI OctetRed96, Fab on galectin-10-His.
Regarding B1, the dissociation constant (Kd) is 147 nM and the koff worked out at 0.00248 s⁻¹.
For the molecule B2, the Kd worked out at 10.7 nM and the koff stood at 0.000299 s⁻¹.
For B3, in that order: 188 nM and 0.00356 s⁻¹.
For B4, in that order: 13.4 nM and 0.000383 s⁻¹.

The target of a further assay is T2, human galectin-10 as coated in ELISA (soluble galectin-10; tag not given) (human, UniProt Q05315 1-142, limits assumed).
T2 construct: also called coated galectin-10; Gal10
T2 sequence: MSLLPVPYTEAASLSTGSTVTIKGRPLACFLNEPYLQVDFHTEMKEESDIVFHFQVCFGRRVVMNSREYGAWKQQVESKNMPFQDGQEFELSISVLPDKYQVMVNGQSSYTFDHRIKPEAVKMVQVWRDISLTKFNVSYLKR
Description: ELISA, scFv periplasmic extract on coated soluble galectin-10, anti-Myc-HRP. Here is the method: In order to test the binding capacity of the scFvs to galectin-10, an ELISA binding assay was established. Briefly, a Maxisorp plate was coated with soluble galectin-10 (1 μg/mL), then blocked with casein, before being incubated with the periplasmic extract (dilution 1/5 in PBS) containing the scFv-Myc. Detection of the binder was carried out with an anti-Myc-HRP antibody. Absorbance was measured at 450 nm (reference at 620 nm) with Tecan instrument. A significant number of galectin-10 scFv binders were isolated after the second round of selection (45-87% of binders).
B5: the “ELISA binding (OD values)” value turned out to be 3.5 OD.
Still for that read-out and setting: to B6 belongs 3.7 OD; to B7, 3.5 OD; to B8, 3.6 OD.
As to B9, the “ELISA binding (OD values)” value is 3.6 OD.
As for B10, the “ELISA binding (OD values)” value turned out to be 3.6 OD and the “PERI-ELISA binding (OD values)” value came out at 3.63 OD.
Take B11: the “ELISA binding (OD values)” value was found to be 3.3 OD.
As to B12, the “ELISA binding (OD values)” value was determined as 3.7 OD.
On the same count and under the same terms, the value for B13 was 3.8 OD.

Another assay addresses T1, human galectin-10-His (recombinant …). Description: BLI Octet RED96, galectin-10-His on anti-Penta-His tips, scFv periplasmic extract 1/10. Here is the method:
Briefly, galectin-10-His tagged diluted in Kinetic Buffer was captured on Anti-Penta His 1K sensor tips until an immobilization level of 1 nm was reached. Then, diluted periplasmic extracts (1/10) were applied and association/dissociation to immobilized galectin-10-His was measured using the ForteBio Data analysis 9.0 software (subtraction of the reference Tips, 1.1 binding model). During the screening, only the dissociation (off-rate) of the scFv can be determined since the effective concentration of the scFv is unknown and can vary a lot from clone to clone. […] Therefore, taking into consideration the ELISA and BLI data, a new panel of lead scFvs was selected.
For orientation: Biolayer interferometry detects binding as a change in optical thickness at a sensor tip.
B5: the dissociation rate constant (koff) was found to be 0.0082 s⁻¹.
Same read-out and setting: to B6 belongs 0.016 s⁻¹; to B7, 0.0014 s⁻¹.
Same read-out and setting: to B8 belongs 0.0099 s⁻¹; to B9, 0.0094 s⁻¹; to B10, 0.0067 s⁻¹.
For the molecule B11, the koff was determined as 0.0052 s⁻¹.
The same measure, in the same setting: the value for B12 was 0.0058 s⁻¹; that for B13 was 0.0057 s⁻¹.

By EC50 is commonly meant the midpoint of the concentration-response curve. As usually defined, the Kd is a measure of binding affinity in units of concentration. As a reminder, the koff is a measure of how fast the partners let go of each other.
